Patent US20100015685A1, “LACTOBACILLUS N-DEOXYRIBOSYL TRANSFERASES, CORRESPONDING NUCLEOTIDE SEQUENCES AND THEIR USES” (INSTITUT PASTEUR, priority 2001, published 2010)

B1: ptd Lh: N-deoxyribosyltransferase of SEQ ID No. 4 coded by the ptd Lh gene of Lactobacillus helveticus (purine deoxyribosyltransferase) (protein)
chain: MKAVVPTGKIYLGSPFYSDAQRERAAKAKELLAKNLSIAHVFFPFDDGFTDPDEKNPEIGGIRSMVWRDATYQNDLTGISNATCGVFLYDMDQLDDGSAFEIGFMRAMHKPVILVPFTEHPEKEKKMNLMIAQGVTTIIDGNTEFEKLADYNFNECPFNPVRGYGIY
modifications: Lactobacillus helveticus PTD
B2: ntd Lh: N-deoxyribosyltransferase of SEQ ID No. 2 (or SEQ ID No. 14) coded by the ntd Lh gene of Lactobacillus helveticus (protein)
chain: MNKKKTLYFGAGWFNEKQNKAYKEAMAALKENPTVDLENSYVPLENQYKGIRIDEHPEYLHNIEWASATYHNDLVGIKTSDVMLGVYLPEEEDVGLGMELGYALSQGKYILLVIPDEDYGKPINLMSWGVCDNAIKISELKDFDFNKPRYNFYDGAVY
modifications: Lactobacillus helveticus NTD
B3: ntd: N-deoxyribosyltransferase of SEQ ID No. 6 coded by the ntd Lf gene of Lactobacillus fermentum (protein)
chain: LKNTDPVANTKIYLATSFFNEEQRARIPQALAQLEANPTVGVVHQPFDFQYKDARVDSDPAGVFGSLEWQIATYNNDLNAVGTSDVCVALYDMDQIDEGICMEIGMFVALHKPIVLLPFTKKDKSAYEANLMLARGVTTWLEPNDFSPLKDFNFNHPMAQPFPPFKVF
modifications: Lactobacillus fermentum NTD

Legend:
[1] = test system: N-deoxyribosyltransferase activity; assay: Enzymatic activity of corresponding raw extracts (in vitro); type: biochemical; set-up: key: (+) growth; (−) absence of growth; details: for Enzymatic activity of raw extracts, dC + A: substrates deoxycytidine + adenine; for Enzymatic activity of raw extracts, dC + T: substrates deoxycytidine + thymine; for Enzymatic activity of raw extracts, dG + A: substrates deoxyguanosine + adenine
PAK 6 strain = assay: Growth of the PAK 6 strain on a glucose mineral medium (in vivo nutritional screening); type: cell-based, Escherichia coli; set-up: key: (+) growth; (−) absence of growth; details: for Growth of the PAK 6 strain, A: glucose mineral medium with adenine; for Growth of the PAK 6 strain, dG + A: glucose mineral medium with deoxyguanosine + adenine; for Growth of the PAK 6 strain, G: glucose mineral medium with guanine
Description: A functional screening allowing the production of guanine to be selected was established on E. coli by deleting the two genes of the guaBA operon which controls the conversion of IMP into XMP then into GMP and also those of the deoCABD operon which controls the degradation of deoxynucleosides to give the PAK 6 strain. The E. coli genome specifies an activity allowing the base G to be converted into GMP (guanine phosphoribosyltransferase encoded by the gpt gene), and also an activity allowing the base G to be released from the dR-G deoxynucleoside (purine nucleoside phosphorylase encoded by the deoD gene in the deo operon). The PAK 6 strain thus has a requirement for guanine (G) which cannot be satisfied by the addition of deoxyguanosine (dR-G). The use of deoxyguanosine (dR-G) can however be selected if an N-deoxyribosyltransferase activity is expressed in the PAK6 strain in order to carry out the exchange: dR-G+A<->dR-A+G.
This exchange between two purine bases can be catalyzed by the two enzyme classes.
DNA fragments of a size comprised between 1 and 2 kb obtained by partial digestion (AluI) of L. helveticus CNRZ 32 were ligated in a ColE1 plasmid (of pUC type digested by SmaI and desphosphorylated) and the mixture is used to transform the PAK6 strain. The transforming clones were selected in a glucose mineral medium to which deoxyguanosine (dR-G) and adenine (A) have been added to the final concentration of 0.3 mM.

PAK 26 strain = assay: Nutritional screening in PAK 26 strain to distinguish deoxyribosyltransferase I and II activities; type: cell-based, Escherichia coli; details: plasmid of selected transforming clones; deoxyguanosine and thymine as sources of guanine and thymidine
Description: Preferably this strain is incapable of growing in the presence of deoxyguanosine as a source of guanine. In preferred manner, it is the PAK 6 strain. • (ii) transfer of exogenous DNA, preferably in the form of an expression vector, into the bacterium, the exogenous DNA being capable of comprising a sequence coding for a deoxyribosyltransferase. • (iii) culture of the bacteria obtained in Stage (ii) on a medium containing deoxyguanosine. • (iv) isolation of the exogenous DNA transferred into the bacteria of Stage (iii) which have developed on the medium containing deoxyguanosine. The present invention also provides a nutritional screening for distinguishing the deoxyribosyltransferase I and II activities, preferably in particular for distinguishing between the ntd and ptd polypeptides according to the invention. This second screening comprises the stages of: • (i) obtaining a bacterial strain such as for example Escherichia coli, auxotrophic for guanine and thymidine. Preferably, this strain is incapable of growing in the presence of guanine and thymidine. In preferred manner, it is the PAK 26 strain (Δ guaBguaA::Δdeo-11 ΔthyA::erm Δ (udp-metE) zif9::Tn10) is auxotrophic for methionine, guanine and thymidine. • (ii) transfer of the exogenous DNA, preferably in the form of an expression vector, into the bacterium, the exogenous DNA being capable of comprising a sequence coding for a deoxyribosyltransferase I or II. • (iii) culture of the bacteria obtained in Stage (ii) on a medium containing deoxyguanosine, then determination of whether the bacteria are growing or not. If the bacteria are growing, then the exogenous DNA codes for a deoxyribosyltransferase II activity which is expressed in said bacterium. If the bacteria are not growing, then the exogenous DNA is capable of coding for a deoxyribosyltransferase I activity. Other characteristics and advantages of the invention are clear from the rest of the description, with examples represented hereafter. […]

Molecule	Enzymatic activity of raw extracts, dC + A [1]	Enzymatic activity of raw extracts, dC + T [1]	Enzymatic activity of raw extracts, dG + A [1]	Growth of the PAK 6 strain, A (PAK 6 strain)	Growth of the PAK 6 strain, dG + A (PAK 6 strain)	Growth of the PAK 6 strain, G (PAK 6 strain)	Class of N-deoxyribosyltransferase activity (I or II) (PAK 26 strain)
B1	−	−	+	−	+	+	Class I N-deoxyribosyltransferase activity
B2	+	+	+	−	+	+	Class II N-deoxyribosyltransferase activity
B3	+	+	+	−	+	+	Class II N-deoxyribosyltransferase activity
